Measurements taken from patent US8663616B2, “Enzymatic peracid generation for use in oral care products” (E I du Pont de Nemours and Company, priority 2010, dated 2014).

What was measured:
[1] = Two-step bleaching of coffee-tea stained bovine enamel (Example 16); conditions: for Whiteness Index 0 min: two-step: 10 μM enzyme 60 min, rinsed, then 40 mM triacetin, 100 mM H2O2, pH 7.2, before step 2; for ΔWI / Whiteness Index 5 min / Whiteness Index 15 min / Whiteness Index 30 min / Whiteness Index 45 min / Whiteness Index 60 min: two-step; for ΔWI: 0 to 60 min; for Whiteness Index 5 min: 5 min in triacetin/H2O2; for Whiteness Index 15 min: 15 min in triacetin/H2O2; for Whiteness Index 30 min: 30 min in triacetin/H2O2; for Whiteness Index 45 min: 45 min in triacetin/H2O2; for Whiteness Index 60 min: 60 min in triacetin/H2O2
Protocol: Bovine enamel incisors were prepared as indicated in Example 1. The stained enamel blocks were embedded in a 48 well plate to protect the dentin backside from solution exposure. A solution of 10 μM of each enzyme in 10 mM phosphate buffer, pH 7.2 was prepared and 500 μL of solution was incubated with each enamel substrate for 60 min. The enzyme solution was removed and each well was rinsed three times with an additional 500 μL of buffer. The enamel blocks were placed in a fresh well for the whitening process. A solution with a final concentration of 40 mM triacetin, 100 mM H2O2 in 50 mM phosphate pH 7.2 buffer was freshly prepared and 500 μL of solution was added to each enamel block. Over the course of 1 hr the enamel blocks were removed and a color measurement was obtained and then each was returned to the solution in the well plate. The whiteness index for each sample was monitored.

[2] = Peracetic acid generation from hydroxyapatite bound CE-7 perhydrolase fusions (Example 8); type: biochemical; conditions: hydroxyapatite particles exposed to 10 μM enzyme, washed; 100 mM triacetin, 100 mM H2O2, 30 min, 37° C.; no enzyme 30-118.8
Protocol: (§1) The detection of peracetic acid followed the method described in Pinkernell et. al. (Analyst, 1997, 122, 567) using colorimetric detection of 2,2′-azino-bis(3-ethylbenzothiazoline(-6-sulfonate (ABTS) oxidation by peracetic acid. Following the formation of peracetic acid with the addition of triacetin and hydrogen peroxide, 90 μL of solution was added to 10 μL of 0.1 M H3PO4 in a well plate. 50 μL of 1 M acetic acid, 50 μL of 0.5 g/L ABTS and 50 μL of 0.002 g/L of KI was added. The solution was allowed to develop for 5 min. The absorbance of the solution was measured at 405 nm using a microplate reader. The peracetic acid concentration was calculated based on a standard curve developed simultaneously using peracetic acid reagent solution.
To assess binding of these constructs to hydroxyapatite, 33 mg of hydroxyapatite particles (Macro-prep Ceramic Hydroxyapatite TYPE I, 80 μm size BioRad, Hercules, Calif.), were washed with 10 mM phosphate buffer at pH 7.2. After removing the supernatant, enzyme stock solution was added to the hydroxyapatite dispersion to a final concentration of 10 μM and incubated for 30 min in a microcentrifuge tube with gentle agitation. Each sample was centrifuged for 1 min at 10000 rpm. The supernatant was removed and additional buffer was added. The particles were resuspended and transferred to a new tube. The process was repeated two additional times. The hydroxyapatite bound enzyme activity was measured by adding a 500 μl solution containing 100 mM triacetin, 100 mM H2O2 in 100 mM phosphate buffer, pH 7.2. The solution was incubated for 30 min, at 37° C. An aliquot was removed and mixed with H3PO4 and properly diluted for detection via ABTS oxidation as described in Example 7. The experiments were performed at different day with no enzyme as control for each experiment.

[3] = Retention of perhydrolase on hydroxyapatite (SDS-PAGE band strength); type: binding; conditions: relative to enzyme input = 1; for Unbound (relative band strength): 10 μM enzyme, 0.5% hydroxyapatite, pH 7.2; for HAP Particles (relative band strength): enzyme retained on particles after washes
Protocol: Perhydrolase enzymes listed in Table 6 were assessed for binding to hydroxyapatite. A dispersion of hydroxyapatite nanoparticles (Aldrich 677418) was made at 0.5% solids in 10 mM phosphate buffer at pH 7.2. Enzyme stock solution was added to the hydroxyapatite dispersion to a final concentration of 10 μM and incubated for 30 min in a microcentrifuge tube with gentle agitation. Each sample was centrifuged for 5 min at 10000 rpm. The supernatant was removed and additional buffer was added. The particles were resuspended and transferred to a new tube. The process was repeated two additional times. Samples of the original input of enzyme, the supernatant removed from the particles with each wash step and the final particles were prepared for SDS-PAGE analysis by combining 60 μL of sample, 20 μL of LDS buffer and 8 μL of reducing agent (Nu-PAGE). Samples were heated at 85° C. for 10 min. 25 μL of each sample was loaded on a 4-12% BisTris gel (Invitrogen) and run at 115 volts for 1.5 h. The gel was removed and stained with a 1:1 dilution of Simply Blue stain (Invitrogen) overnight and destained for 4 h in deionized water. The gel was analyzed and detection of enzyme in each fraction was estimated based on the presence of a band. The results of the analysis are provided in Table 7 with an indication of the relative strength of each band in the gel compared to the enzyme input (input=1) to determine the strength of binding between the hydroxyapatite surface and each enzyme.

[4] = Perhydrolase activity in solution, ABTS detection of peracetic acid (Example 7); type: biochemical; conditions: 10 μL of 0.625 μg/mL enzyme, triacetin, H2O2, pH 7.2, 5 min
Protocol: as §1
The enzyme activity in solution was measured by making a solution of 0.625 μg/mL of each enzyme in 50 mM phosphate buffer, pH 7.2. 10 μL of enzyme solution was mixed with 90 μL buffer, 30 μL of 3% triacetin in water, 30 μL of 30 mM H2O2. The solution was incubated for 5 min. A 90 μL aliquot was removed for detection via ABTS oxidation as noted above.

[5] = T. maritima C277S/C277T constructs, peracetic acid in solution (Example 11); type: biochemical; conditions: 0.5 μM enzyme, 100 mM triacetin, 100 mM H2O2, pH 7.2, 10 min, 37° C.; no enzyme 114
Protocol: as §1
Perhydrolase enzymes listed in Table 5 were assessed for enzyme activity in solution as described in Example 7. The enzyme activity in solution was measured by making a 500 μl solution of 0.5 μM of each enzyme in 100 mM triacetin, 100 mM H2O2 and 10 mM phosphate buffer, pH 7.2. The solution was incubated for 10 min, at 37° C. After the reaction was stopped by mixing an aliquot with H3PO4, a 10 μL aliquot was removed for proper dilution, and then detected via ABTS oxidation as described in Example 7.

[6] = T. maritima C277S/C277T constructs, peracetic acid when bound to bovine enamel (Example 11); type: biochemical; conditions: bovine enamel exposed to 10 μM enzyme, 4 washes; 100 mM triacetin, 100 mM H2O2, 30 min, 37° C.; no enzyme 570
Protocol: as §1
The perhydrolase enzymes were also assessed for binding to bovine enamel substrates. Enamel substrates were prepared as described in Example 2 and 3. Each enamel block was hydrated in water for overnight at room temperature (˜22° C.). The enamel blocks were then equilibrated with 10 mM potassium phosphate buffer, pH7.2, for 10 min. The enamel substrates were rinsed 3 times the buffer. The enamel wells were filled with 500 μL of 10 μM enzyme solutions which was prepared by diluting in 10 mM phosphate buffer. The samples were incubated for 30 min with slow shaking at 37° C. The non-binding enzyme was removed by washing 4 times with phosphate buffer. Then, each enamel block was embedded inside a putty filled 24-well plate, with only the enamel top surface exposed. The perhydrolase activity from enamel bound enzyme was measured as described in Example 8. 100 μL reaction mixtures (100 mM phosphate buffer, pH7.2 and 100 mM H2O2 and 100 mM triacetin) was added on top of the enamel and incubated for 30 min at 37° C. A 90 μL aliquot was removed for detection via ABTS oxidation as noted in Example 8. Each sample data point represents an average of 3 independent enamel blocks.

Row | Molecule | Whiteness Index 0 min [1] | ΔWI [1] | Whiteness Index 5 min [1] | Whiteness Index 15 min [1] | Whiteness Index 30 min [1] | Whiteness Index 45 min [1] | Whiteness Index 60 min [1] | Peracetic acid (ppm) [2] | Unbound (relative band strength) [3] | HAP Particles (relative band strength) [3] | Wash1 (relative band strength) [3] | Wash2 (relative band strength) [3] | Avg Absorbance 405 nm Background subtracted [4] | Peracetic acid (ppm) In Solution [5] | Peracetic acid (ppm) On Enamel [6]
1 | EZ-2: C277S-link1-HC263-H6 fusion protein, SEQ ID NO: 425 (protein) MAFFDLPLEELKKYRPERYEEKDFDEFWEETLAESEKFPLDPVFERMESHLKTVEAYDVTFSGYRGQRIKGWLLVPKLEEEKLPCVVQYIGYNGGRGFPHDWLFWPSMGYICFVMDTRGQGSGWLKGDTPDYPEGPVDPQYPGFMTRGILDPRTYYYRRVFTDAVRAVEAAASFPQVDQERIVIAGGSQGGGIALAVSALSKKAKALLCDVPFLCHFRRAVQLVDTHPYAEITNFLKTHRDKEEIVFRTLSYFDGVNFAARAKIPALFSVGLMDNISPPSTVFAAYNYYAGPKEIRIYPYNNHEGGGSFQAVEQVKFLKKLFEKGGPGSGGAGSPGSAGGPGSPSAQSQLPDKHSGLHERAPQRYGPEPEPEPEPIPEPPKEAPVVIEKPKPKPKPKPKPPAHDHKNQKETHQRHAAGSGGGGSPHHHHHH | −154.5 | 129.1 | −134.6 | −97.3 | −57.2 | −35.8 | −25.3 | 3666.4 ppm | 0.5 | 0.5 | 0.0 | 0.0 | 1.577 | 4761 ppm | 2549 ppm
2 | EZ-3: C277S-link2-H6, SEQ ID NO: 426 (protein) MAFFDLPLEELKKYRPERYEEKDFDEFWEETLAESEKFPLDPVFERMESHLKTVEAYDVTFSGYRGQRIKGWLLVPKLEEEKLPCVVQYIGYNGGRGFPHDWLFWPSMGYICFVMDTRGQGSGWLKGDTPDYPEGPVDPQYPGFMTRGILDPRTYYYRRVFTDAVRAVEAAASFPQVDQERIVIAGGSQGGGIALAVSALSKKAKALLCDVPFLCHFRRAVQLVDTHPYAEITNFLKTHRDKEEIVFRTLSYFDGVNFAARAKIPALFSVGLMDNISPPSTVFAAYNYYAGPKEIRIYPYNNHEGGGSFQAVEQVKFLKKLFEKGGSHHHHHH | −159.0 | 75.2 | −147.4 | −161.5 | −117.3 | −104.7 | −83.8 | – | 0.8 | 0.1 | 0.05 | 0.05 | 1.751 | 5187 ppm | 733 ppm
